We go through 19 molecules from US9574185B2, “Cold-adapted protease derived from Pseudoalteromonas arctica PAMC 21717 and uses thereof” (KOREA INSTITUTE OF OCEAN SCIENCE & TECHNOLOGY, priority 2014, dated 2017).

Series [1] deals with W-Pro21717. Description: Activity and stability of W-Pro21717 in the presence of metal ions and surfactants. The note with it: 1 mM, on ice for 1 hour. It is filed as biochemical, Pseudoalteromonas arctica PAMC 21717. On the procedure: In order to analyze the influence of metal ions and detergents, W-[…] was allowed to react with a standard buffer containing 1 mM BaCl2, CuSO4, MgSO4, CaCl2, ZnSO4, FePO4, KCl, NaCl, […], sodium linear alkylbenzene sulfonate (LAS) or SDS on ice for 1 hour. In addition, the compatibility of W-[…] with a commercial detergent (LG Household & Health Care, Korea; containing subtilisin Carlsberg) was analyzed using skim milk at temperatures of 10° C. or and 30° C.

Series [2] relates to W-Pro21717. Description: Reactions of W-Pro21717 with various protease inhibitors. It is filed as biochemical, Pseudoalteromonas arctica PAMC 21717. The note with it: for Residual activity (%): residual activity of W-Pro21717, inhibitor 1 mM. The method, then:
The reaction solution was centrifuged, and then filtered through a filter having a pore size of 0.45 μm, and the filtrate was mixed and reacted with Folin & Ciocalteu's phenol solution and 500 mM sodium carbonate solution at 37° C. for 30 minutes. Next, the enzymatic activity of the reaction product was measured at 660 nm based on an L-tyrosine standard curve, and an amino acid production of 1 nmole/min/mg at 25° C. was defined as the activity of 1 unit of protease.
The kind of W-Pro21717 was analyzed by reactions with various protease inhibitors.

Series [3] in a line: Activity of W-Pro21717 as a function of temperature and pH. Format: biochemical. The note with it: range 0 to 60° C. tested. The method, then:
A temperature optimal for the activity of W-Pro21717 was analyzed in the temperature range of 0 to 60° C., and the optimum pH was analyzed by 1-hour reactions in 50 mM sodium acetate (pH 2.0-6.0), 50 mM potassium phosphate (pH 7.0-10.0) and 50 mM sodium tetraborate (pH 10.0). As a control, 3 μg of the commercial protease Carlsberg subtilisin was used.

Series [4] can be described thus: Stability of W-Pro21717 as a function of temperature and pH. Format: physicochemical. The note with it: after a reaction at 40° C. for 1 hour.
Series [5] can be described thus: Substrate specificity of W-Pro21717 with synthetic peptides (p-nitroanilides, 410 nm). It is filed as biochemical. The note with it: 25° C., 10 minutes. On the procedure: (§1) The substrate specificity of W-Pro21717 was analyzed using 5 mM of each of the following 7 different synthetic peptides: N-succinyl-Ala-Ala-Val-p-nitroanilide (AAV), N-succinyl-Ala-Ala-Pro-Leu-p-nitroanilide (AAPL), N-succinyl-Ala-Ala-Ala-p-nitroanilide (AAA), N-succinyl-Gly-Gly-Phe-p-nitroanilide (GGF), N-succinyl-Thr-Leu-Val-p-nitroanilide (TLV), N-succinyl-Ala-Ala-Pro-Phe-p-nitroanilide (AAPF), and N-succinyl-Ala-Ala-Val-Ala-p-nitroanilide (AAVA). W-Pro21717 was allowed to react with a standard buffer containing 0.83 mM substrate at 25° C. for 10 minutes, and then the relative activity thereof was measured at 410 nm.

The subject of series [6] is azocasein. Description: Activity of R-Pro21717 as a function of temperature and pH. It is filed as biochemical. On the procedure:
(§2) In order to determine a temperature optimal for the activity of the protease, R-Pro21717 was allowed to react at varying temperatures of 0˜70° C., and then analyzed. The stability of R-Pro21717 against temperature was analyzed by allowing R-Pro21717 at varying temperatures of 0˜70° C. for 1 hour, and then allowing R-Pro21717 to react a 0.65% azocasein-containing standard buffer at 30° C. for 30 minutes. As a control enzyme, Carlsberg subtilisin was used.
(§3) In order to determine a pH optimal for the activity of the protease, R-Pro21717-containing buffers having varying pHs were allowed to react at 30° C., and then analyzed. The stability of R-Pro21717 against pH was analyzed by allowing R-Pro21717-containing buffers having varying pHs to react on ice for 1 hour, and then reacting R-Pro21717 in 0.65% azocasein-containing standard buffer at 30° C. for 30 minutes. Carlsberg subtilisin was used as a control enzyme and analyzed at a reaction temperature of 40° C.

In series [7] the test system is azocasein. Description: Stability of R-Pro21717 against temperature and pH. Format: physicochemical. The note with it: 1 hour at varying temperatures, then azocasein 30° C. 30 minutes. On the procedure: as §2, §3
The nature of series [8]: Substrate specificity of R-Pro21717, synthetic peptide (oligo molecule) substrates. It is filed as biochemical. On the procedure:
as §1
In this Example, the activity of the R-Pro21717 protease in the presence of synthetic peptide substrates was analyzed.

The subject of series [9] is complex substrates including collagen and keratin. Description: Substrate specificity of R-Pro21717, macro molecule substrates. It is filed as biochemical.

Regarding `[Cl-].[K+]` [K^+, KCl], in the series with W-Pro21717 [1], the “influence on the activity of W-Pro21717” value is listed as “did not influence”.

With `Cc1ccc(S(=O)(=O)N[C@@H](CCCCN)C(=O)CCl)cc1` [N^a-p-tosyp-L-lysine chloromethyl ketone], in the series with W-Pro21717 [2], the “Residual activity (%)” value is on record as 137 ± 13%.

`O=P([O-])([O-])[O-].[Fe+3]` [Fe^2+, FePO4]: the “influence on the activity of W-Pro21717” value in the series on W-Pro21717 [1] is recorded as “did not influence”.

For the molecule `O=S(=O)(F)Cc1ccccc1` [PMSF], in the series on W-Pro21717 [2], the “effect of inhibitor on the activity of W-Pro21717” value (“effect of inhibitor” below) is “inhibited” and the “Residual activity (%)” value is given as 40 ± 8%.

`CC(=O)N[C@@H](CC(C)C)C(=O)N[C@@H](CC(C)C)C(=O)N[C@H](C=O)CCCNC(=N)N` [Leupeptin]: in the series with W-Pro21717 [2], the “Residual activity (%)” value is 98 ± 2%.

With `CCN1C(=O)C=CC1=O` [N-Ethylmaleimide], in the series on W-Pro21717 [2], the “Residual activity (%)” value is reported as 107 ± 8%.

With `O=C(O)CN(CCN(CC(=O)O)CC(=O)O)CC(=O)O` [EDTA], in the series on W-Pro21717 [2], the “effect of inhibitor” value was “slightly inhibited” and the “Residual activity (%)” value was 75 ± 9%.

With `O=S(=O)([O-])[O-].[Mg+2]` [Me, MgSO4], in the series on W-Pro21717 [1], the “influence on the activity of W-Pro21717” value is “did not influence”.

As to `[Ca+2].[Cl-].[Cl-]` [Ca^2+, CaCl2], the “influence on the activity of W-Pro21717” value with W-Pro21717 [1] is on record as “did not influence”.

Take `O=S(=O)([O-])[O-].[Na+].[Na+]` [Na2SO4]: the “stability of W-Pro21717 in the presence of standard detergent components” value in the series on W-Pro21717 [1] is “sufficient stability”.

Regarding `[Cl-].[Na+]` [Na^2+, NaCl], the “influence on the activity of W-Pro21717” value in the series with W-Pro21717 [1] is “did not influence”.

Take `[Cl][Hg][Cl]` [HgCl2]: in the series on W-Pro21717 [2], the “effect of inhibitor” value is given as “inhibited” and the “Residual activity (%)” value was determined as 23 ± 8%.

Take `NC(=O)CI` [Iodoacetamide]: the “Residual activity (%)” value in the series with W-Pro21717 [2] is 94 ± 3%.

`O=S(=O)([O-])[O-].[Zn+2]` [Zn^2+, ZnSO4]: the “influence on the activity of W-Pro21717” value in the series on W-Pro21717 [1] is reported as “did not influence”.

With “sodium linear alkylbenzene sulfonate [LAS]”, in the series on W-Pro21717 [1], the “stability of W-Pro21717 in the presence of standard detergent components” value is “sufficient stability”.

With `O=S(=O)([O-])[O-].[Cu+2]` [CuSO4], in the series on W-Pro21717 [1], the “increase of the activity of W-Pro21717” value was “about 60%”.

Turning to APMA, in the series with W-Pro21717 [2], the “Residual activity (%)” value is recorded as 131 ± 2%.

Consider `[Ba+2].[Cl-].[Cl-]` [Ba^2+, BaCl2], for which the “influence on the activity of W-Pro21717” value in the series with W-Pro21717 [1] is “did not influence”.

B1: Subtilisin Carlsberg: commercial protease used as control enzyme (protein, UniProt P00780 106-379, looked up)
Subtilisin Carlsberg: AQTVPYGIPLIKADKVQAQGFKGANVKVAVLDTGIQASHPDLNVVGGASFVAGEAYNTDGNGHGTHVAGTVAALDNTTGVLGVAPSVSLYAVKVLNSSGSGSYSGIVSGIEWATTNGMDVINMSLGGASGSTAMKQAVDNAYAKGVVVVAAAGNSGSSGNTNTIGYPAKYDSVIAVGAVDSNSNRASFSSVGAELEVMAPGAGVYSTYPTNTYATLNGTSMASPHVAGAAALILSKHPNLSASQVRNRLSSTATYLGSSFYYGKGLINVEAAAQ
As to B1, the “temperature optimal for the activity” value (in [3]; in the series with azocasein [6] (0˜70° C. tested)) was 60 °C throughout. In series [4], this molecule had a decrease in activity of 80%. Further, the “Relative activity (%)” value in series [5] (substrate AAA) worked out at 1.5 ± 0.5%; in series [5] (substrate AAPF), 100%; in series [5] (substrate AAPL), 66.5 ± 0.1%; in series [5] (substrate AAPL, listed as subtilisin Carlsberg), 68.3%; in series [5] (substrate AAV), 2.6 ± 1.3%; in [5] (substrate AAVA), 11.7 ± 2.3%. Also, the “Relative activity (%)” value in series [5] (substrate GGF) stood at 0%; in series [5] (substrate TLV) it was 4.0 ± 3.7%; in [8] (substrate AAA), 10.2 ± 1.9%; in series [8] (substrate AAPF) it was 100%; in [8] (substrate AAPL), 57.1 ± 10.1%; in series [8] (substrate AAV) it was 7.9 ± 3.9%. For the same molecule, the “Relative activity (%)” value in series [8] (substrate AAVA) is on record as 12.9 ± 0.6%; in [8] (substrate GGF), 16.2 ± 2.1%; in [8] (substrate TLV) it was 11.9 ± 1.1%; in series [9] (substrate Azocasein), 100%; in series [9] (substrate Collagen), 6.7 ± 1.2%; in [9] (substrate Keratin), 30.2 ± 5.6%. In addition, the “Relative activity (%)” value in series [9] (substrate Skim milk) was 67.7 ± 5.7%. The “proteolytic activity at low temperature compared to 60° C.” value with azocasein [6] (printed 'at or') was “did not show proteolytic activity”. Moreover, the “pH optimum and pH stability compared with R-Pro21717” value with azocasein [6] (reaction temperature 40° C.) is “the same results as those of R-Pro21717”. In addition, the “temperature at which stability / enzymatic activity decreases” value in the series with azocasein [7] was not below 50 °C.
